Measured values published in patent US20200129630A1, “METHODS FOR TREATING CANCER” (BicycleRD Limited, priority 2018, published 2020).
Numbered stars: 1 amine (or outer) side, 2 acyl side, 3 side chain; on linkers, the order of the positions; unused ones are H or OH. Bridge positions count the residues as written; N and C are the ends. Square brackets hold non-standard residues; d marks the D form. Peptide text beside a SMILES is read from it. * marks the point of attachment. X1 = COc1cc2cc(c1Cl)N(C)C(=O)C[C@H](OC(=O)[C@H](C)N(C)C(=O)CCSSC(C)CCC(=O)*)[C@]1(C)O[C@H]1[C@H](C)[C@@H]1C[C@@](O)(NC(=O)O1)[C@H](OC)/C=C/C=C(\C)C2; 1Nal = N[C@@H](Cc1cccc2ccccc12)C(=O)O; TBMB = c1c(C[*:1])cc(C[*:3])cc1C[*:2]; Tle = CC(C)(C)[C@H](N)C(=O)O; βAla = NCCC(=O)O; Sar = CNCC(=O)O

Experiments:
[1] = molecular target: hemopexin domain of MT1-MMP (Homo sapiens, UniProt P50281); assay: Binding to hemopexin domain of MT1-MMP
Protocol: Bicycle drug conjugates (BDCs) with a variety of linkers and cytotoxic payloads were prepared which retained binding to MT1.
BT1718 is a BDC that binds to MT1-MMP and upon cleavage of its disulphide linker, releases the cytotoxic tubulin inhibitor, DM1 (also referred to as DM1-SH).

NCI-H1975 = assay: In vitro cytotoxicity (CellTiter-Glo) NCI-H1975; format: cell-based; settings: NCI-H1975, NSCLC
Text: (§1) Table 1 and Table 2 Notes: in general regression and stable disease correlated with the in vitro cytotoxicity and MT1-MMP expression. Female BALB/c mice n=3/group animals dosed twice per week except EBC-1 three per week. Tumor growth inhibition (TGI) (%)=[1−(Ti−T0)/(Vi−V0)]×100; Ti is the average tumor volume of a treatment group on a given day, TO is the average tumor volume of the treatment group on the day of treatment start, Vi is the average tumor volume of vehicle control group on the same day with Ti, and V0 is the average tumor volume of vehicle group on the day of treatment start. A one-way ANOVA was performed to compare tumor volume among groups, and when a significant F-statistics (a ratio of treatment variance to the error variance) was obtained, comparisons between groups were carried out with Games-Howell test. All data were analyzed using GraphPad Prism.* p<0.05, ** p<0.01, *** p<0.001. In vitro cytotoxicity was measured by CellTiter-Glo®, MT1-MMP membrane H score from immunohistochemistry staining, NM not measured. Tumor size on Day 1 of dosing.

MOLP-8 = assay: In vitro cytotoxicity (CellTiter-Glo) MOLP-8; format: cell-based; settings: MOLP-8, Myeloma
Text: as §1

[2] = CNS behavioral model (Irwin study); format: in vivo; settings: single dose 0.2, 0.5 or 1 mg/kg, rats
Protocol: As part of the Good Laboratory Practice (GLP)-compliant toxicity studies, a core battery of safety pharmacology tests were performed. […] Electrocardiogram (ECG) and respiratory plethysmography measurements were taken in monkeys dosed at 0.2, 0.5, 1 and 1.5 mg/kg (2.4, 6, 12 and 18 mg/m^2 respectively) twice weekly on Day 4, Day 22 (following 2nd and 7th dose) and in the recovery period (for animals dosed with 0, 6 and 12 mg/m^2 twice weekly). Blood pressure (BP) measurements were also evaluated in the same monkeys on Day 1 and Day 25 and in the recovery period. […] It is therefore concluded that BT1718 has no cardiac, respiratory or behavioral liability at the doses and schedule tested in the GLP toxicity studies.

[3] = Stability in plasma in vitro, rat; format: in vitro ADME; settings: 37° C.
Protocol: (§2) The stability of BT1718 was assessed in plasma and whole blood from humans, monkey, dog, mouse and rat. […] The mechanism for the difference in stability of the BT1718 peptide in whole blood between the different species is unknown.

[4] = Stability in plasma in vitro, dog; format: in vitro ADME; settings: 37° C.
Protocol: as §2

[5] = Stability in plasma in vitro, mouse; format: in vitro ADME; settings: 37° C.
Protocol: as §2

[6] = Plasma protein binding, mouse; format: in vitro ADME, mice; settings: read-out: free fraction
Protocol: Plasma protein binding of BT1718 was also assessed. The mean plasma protein binding of the BT1718 peptide ranged from 87% to 98%, with the free fraction of BT1718 being 13% in human, 2.6% in rats, 7.5% in mice, 3.8% in monkey and 1.5% in dog plasma, the results had no correlation to the plasma and whole blood stability data. […] Plasma protein binding of unconjugated DM1, has previously been reported, with the unbound fraction being 7% in human and monkey and 3% in rat.

[7] = LC-MS/MS quantification of DM1 in patient tumor samples; format: in vivo, patients; settings: three patient tumor samples
Protocol: A quantitative high performance liquid chromatography-tandem mass spectrometry (LC-MS/MS) method for the quantification of DM1 in tissue samples was developed.
DM1 was administered as complexed with a bicyclic peptide in […]. In order to determine the concentration of the free DM1 the conjugated molecule was reduced and subsequently derivatized with vinyl pyridine.
The same sample preparation procedure used for PK determination in the GLP pre-clinical studies, is applied for the determination of DM1 in tissue samples, In short: after tissue homogenization samples were reduced with TCEP prior derivatization by vinyl-pyiridine. […]
The homogenization method was optimized as follows: • 1) Thaw the tissue samples at room temperature. • 2) Weight the desired amount of tissue in a Precellys 2 mL Reinforced tube on an Analytical Balance. • 3) Use the weight of the tissue to calculate the volume of solution. […] Homogenization solution: (NaCl (0.9%): SDS (0.2 mg/mL) (50:50 v/v %)) • 4) Add the calculated amount of solution to the tissue. • 5) Vortex for approximately 5 seconds. • 6) Pre-cool the samples in a wet ice bath for approximately 8 minutes • 7) Run the Precellys-24 Dual homogenizer at 5000 rpm in five sessions of 40 seconds. • 8) Centrifuge the homogenate samples 3 minutes at 3000 rpm at 4° C. using a 5810-R centrifuge.

BALB/c mouse PK study = settings: female; for Cmax: BALB/c mouse, 15 mg/m^2 (5 mg/kg) IV
[8] = PK samples in EBC-1 xenograft study; settings: female, BALB/c, mouse, plasma, iv
[9] = BALB/c, mouse, plasma, iv, 15 mg/m2

For COc1cc2cc(c1Cl)N(C)C(=O)C[C@H](OC(=O)[C@H](C)N(C)C(=O)CCSSC(C)CCC(=O)NCCC(=O)N(C)CC(=O)N(C)CC(=O)N(C)CC(=O)N(C)CC(=O)N(C)CC(=O)N(C)CC(=O)N(C)CC(=O)N(C)CC(=O)N(C)CC(=O)N(C)CC(=O)N[C@@H](C)C(=O)N[C@H]1CSCc3cc4cc(c3)CSC[C@H](NC(=O)[C@@H](C)NC(=O)[C@H](Cc3cccc5ccccc35)NC(=O)[C@H](CCC(=O)O)NC(=O)[C@H](CC(N)=O)NC(=O)[C@@H](C)NC1=O)C(=O)N[C@@H](CCC(=O)O)C(=O)N[C@@H](CC(=O)O)C(=O)N[C@@H](Cc1ccccc1)C(=O)N[C@@H](Cc1ccc(O)cc1)C(=O)N[C@@H](CC(=O)O)C(=O)N[C@@H](C(C)(C)C)C(=O)N[C@H](C(N)=O)CSC4)[C@]1(C)O[C@H]1[C@H](C)[C@@H]1C[C@@](O)(NC(=O)O1)[C@H](OC)/C=C/C=C(\C)C2 (stereo partly drawn) [BT1718] ({X1-βAla}-[Sar][Sar][Sar][Sar][Sar][Sar][Sar][Sar][Sar][Sar]AC[dA]NE[1Nal][dA]CEDFYD[Tle]C-NH2; linker 12-18-25 via TBMB (inferred)), the Ki [1] was 0.00175 ± 0.00092 µM, the IC50 (NCI-H1975) was 0.0197 µM and the IC50 (MOLP-8) was 0.141 µM. The “CNS behavioral effects (Irwin study)” value [2] was “No effects”, the half-life [3] was greater than 6 h and the half-life [4] was greater than 6 h. For the same compound, the half-life [5] was greater than 5 h, the fraction unbound [6] was 0.075 and the “delivery of DM1 to tumor” value [7] was “delivery of DM1 to tumor in two patients”. It also gave an AUC (BALB/c mouse PK study; BALB/c, mouse, plasma, intravenous, 5 mg/kg) of roughly 2.5 µM·h, a Cmax (BALB/c mouse PK study; BALB/c, mouse, plasma, iv, 5 mg/kg, C0/Cmax) of 8 µM and an AUC (BALB/c mouse PK study; [9]) of 2.3 ± 0.2 µM·h. It also gave a Vd (BALB/c mouse PK study; [9]) of 0.23 ± 0.09 L/kg, a clearance (BALB/c mouse PK study; [9]) of 7.5 ± 0.6 mL/min/kg and a half-life (BALB/c mouse PK study; [9]) of 0.56 ± 0.18 h. For the same compound, the Cmax (BALB/c mouse PK study; read-out: C0/Cmax) was 7.2 ± 0.41 µM, the Cmax ([8]; 3 mg/kg) was 1.5 ± 0.9 µM and the Cmax ([8]; 10 mg/kg) was 7.6 ± 0.6 µM.
